The supplement of paper PMC9170038

Tested on: MS2 coat protein
Test: apparent KD of MS2 coat protein; designed switch direction (-1 OFF switch, 1 ON switch): -1; higher = weaker reporter binding
Summary of the method: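 Stalled E. coli RNA polymerase transcribed designed RNA switches on Illumina chips, which were then titrated with SNAP-549-labelled MS2 coat protein, doubling from 0.7 or 1.5 nM to 3 µM. Steps lasted from 0.8–1.5 h at the lowest concentration to 10–20 min at the highest. The apparent KD is each design's median over clusters of curve-fitted normalised fluorescence.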

[1] = input ligand: microRNA oligo, concentration not stated
[2] = Eterna round: R95, input ligand: FMN 200 uM
[3] = Eterna round: R95, input ligand: microRNA oligo, concentration not stated
[4] = Eterna round: R95, input ligand: none

Row | Sequence | apparent KD of MS2 coat protein (input ligand: FMN 200 uM) [nM] | apparent KD of MS2 coat protein [1] [nM] | apparent KD of MS2 coat protein (input ligand: none) [nM] | apparent KD of MS2 coat protein [2] [nM] | apparent KD of MS2 coat protein [3] [nM] | apparent KD of MS2 coat protein [4] [nM]
1 | AAAAUAAAAGCAGGAUAUCGACCUCCCAAGUGGCGAGAAGGGCUAGACGGGCGGUCUAACAUGAGGAUCACCCAUGUCAACAAA [Soorante] (Eterna round: R96, puzzle: Exclusion NG 1) | 93.4 | 23.5 | 34.7 |  |  | 
2 | UGUUGUCGCGUAGGAUAUUGUCAACAGGCAGUAGGAUAUGCGAAAGCAGAAGGACCGCCAACAGGCGAGAAGGACGGGACAACU [pwkr exNG2 2xF7 2xFMN.6] (Eterna round: R96, puzzle: Exclusion NG 2) | 44.3 | 35.6 | 138 |  |  | 
3 | AAAUAAAGCCUAGGAUAUCCGGACGAUAACCCAGGAGAAGGAGGAUGUCGAAGAAGACAUGAGGAUCACCCAUGUGCGUCCUCU [Ancegege] (Eterna round: R96, puzzle: Exclusion NG 1) | 10.3 | 10.6 | 15.4 |  |  | 
4 | CGUCCACUUGAGGAUCACCCAAGUUAGGAUAUCUCCCGGCUCGCAAAUGCAGUCGGUCAGAGAAGGAACCAGGG [Qualaon] (Eterna round: R97, puzzle: Exclusion 1) | 59.6 |  | 26.7 |  |  | 
5 | UUUACAAGCUAUAGAUCCCACAUGAGGAUCACCCAUGUUGCUGCCAACGGUAGCUUUUUAUGGUUUGCUCGUCUUAU [JL TOV1 3.35] (Eterna round: R97, puzzle: Sensor, turn-off variant 1) | 443 |  | 1860 |  |  | 
6 | UUGGUUAUCUAUGGAAGUAACAUGAGGAUCACCCAUGUAUGUCUUGUUUUUUGUUCGUCAUAGGCCUUUUGUUUGGA [JR_SV3TOV1_Sub023] (puzzle: Sensor v3, turn-off variant 1) |  |  |  | 24.9 | 24.9 | 30.3
7 | CUUUCGUGAGGAUAUCAGUAGUAAAUAAAUAAAAUUACUACUGAGAAGGCACAUGAGGAUCACCCAUGUUCCUC [salish99_ex3_r3_096] (puzzle: Exclusion 4) |  |  |  |  | 23.5 | 
8 | GGCUAGUCAGGAUAUACGAACAUGUCAAAAGACGUGAAGGGACAUGAGGAUCACCCAUGUAGAAGGGACUAGCC [salish99_ex2_r3_004] (puzzle: Exclusion 2) |  |  |  |  | 21.8 | 
9 | CAGCUGAAUGUGAGGAUAUGUCGAGCUGCGGCUCGAUAGAAGGCACAUGAGGAUCACCCAUGUCUCAACAGCUG [BmEx4/2-C3] (Eterna round: R97, puzzle: Brourd's mod of Exclusion 4) | 215 |  | 31.2 |  |  | 
10 | GGUCAUCAAGUCAGGAUAUCGUCUAAUCAAUCAGGCGAGAAGGGACAUGAGGAUCACCCAUGUCGACUCAUCAG [Ex4 #6] (Eterna round: R97, puzzle: Brourd's mod of Exclusion 4) | 130 |  | 33.5 |  |  | 
11 | AGUUGGCGAGGAUAUACAUGAGGAUCACCCAUGUAUGAGAUACGAGUAAGGUAAAUAUGUAGAAGGCGCUGACA [JR_Ex3_Sub077] (Eterna round: R97, puzzle: Exclusion 3) | 52 |  | 16.8 |  |  | 
12 | AGUUGGCGAGGAUAUACAUGAGGAUCACCCAUGUGAGGGAUACUAGUGAGGUCGAUUAGUAGAAGGCGCUGACA [Mat X3R4 m9] (Eterna round: R97, puzzle: Exclusion 3) | 839 |  | 56.1 |  |  | 
13 | UAUUCGCGAGGAUAUGCAGUCGAGUCCAUUACGUGUCUGGGACUUGAGGAUCACCCAAGUAGAAGGCGUCUCAU [salish99_ex2_r4_642] (Eterna round: R97, puzzle: Exclusion 2) | 124 |  | 123 |  |  | 
14 | AUAACAAGCUUUUUGUUCGUAGAACAUGAUGCUCGAGUCACAUGAGGAUCACCCAUGUCAACCAGAUAGAUAGUUGA [JR_SV3TOV2_Sub061] (puzzle: Sensor v3, turn-off variant 2) |  |  |  | 41.2 | 162 | 54.4
15 | GGCACACAUGAGGAUCACCCAUGUGAGGAUAUGCUGCGAUCGUCGUAAGACGAUAGCAGUAGAAGGCACAUGCC [Mat - Exclusion 1 - Eli Mod - D8] (Eterna round: R97, puzzle: Exclusion 1) | 22.9 |  | 20.5 |  |  | 
16 | CGUGUGCAGUAGGAUAUCCAAAUCCUGUGGAUAGGAGAAGGACUGACAUGAGGAUCACCCAUGUGGGUAAAGAC [Velaxediza] (puzzle: Exclusion 6) |  |  |  | 48.8 | 63.7 | 57.7
17 | GCUUUUGGGCAAGGAUAUCCUGCGCGGUUCCGGUUCGUGUCUGUCACAUGAGGAUCACCCAUGUGGGAGAAGGUGCCUGUGGUG [Design 72] (Eterna round: R96, puzzle: Exclusion NG 2) | 28.3 | 13.6 | 18.4 |  |  | 

Row | Sequence | apparent KD of MS2 coat protein (input ligand: FMN 200 uM) [nM] | apparent KD of MS2 coat protein [1] [nM] | apparent KD of MS2 coat protein (input ligand: none) [nM] | apparent KD of MS2 coat protein [2] [nM] | apparent KD of MS2 coat protein [3] [nM] | apparent KD of MS2 coat protein [4] [nM]
18 | GUUAAGUGAGGAUAUGGUAAAUUAAUUAUUAAUUAAUUAAUCCAGAAGGCACAUGAGGAUCACCCAUGUAAAUG [Mat - Exclusion 4 - D87] (puzzle: Exclusion 4) |  |  |  | 54.6 | 30.5 | 31.5
19 | CGAAGUAGAAACCGAUCCUACAUGAGGAUCACCCAUGUAGCAAGACGUGCACGCGAAGCUCGUCAGACUACCAGAAC [salish99_TOv1_r3_013] (puzzle: Sensor v3, turn-off variant 1) |  |  |  | 312 | 332 | 420
20 | AUAAUACAUGAGGAUCACCCAUGUGAGGAUAUACGACUCCAACCAAACUGCUUGGACCGUAGAAGGCACAAGGG [Exclusion 1 (MOD1 Esqu)] (Eterna round: R97, puzzle: Exclusion 1) | 22.7 |  | 589 |  |  | 
21 | UACAUGAGGAUCACCCAUGUUUUGUCGUGUAUGGUAUUUAUCUAGGAUAUCAAUUUAUUAAUUUAUGAGAAGGAGAAUAUUAAU [JMF's solution 20] (Eterna round: R96, puzzle: Exclusion NG 3) | 34.4 | 25.8 | 43.3 |  |  | 
22 | AGAAAUGCCCAUGACCGCAAGCUUUUUGCUUGUCUUACCACAUGAGGAUCACCCAUGUGACAUGGGCUCCUGAUAAU [Onlaleti] (puzzle: Sensor v3, turn-off variant 2) |  |  |  | 14.7 | 11.4 | 12.3
23 | UUAUAUAGUGUGAGGAUAUGCUGGUCCUUGGAUCAGCAGAAGGCACAUGAGGAUCACCCAUGUAGUUAAUUAUA [Mat - Exclusion 4 - JL Mod - D15] (puzzle: Brourd's mod of Exclusion 4) |  |  |  |  | 30.1 | 
24 | GGUCCACAUGAGGAUCACCCAUGUUAGGAUAUCUCCCGCCUCCUCACUGGAGACGGACAGAGAAGGAACAUCAA [Vetibele] (puzzle: Exclusion 1) |  |  |  |  | 23.7 | 
25 | AGGCAGCAAGGAUAUACAUAAUUCCUACAAGUCAGCAUAGGACAUGAGGAUCACCCAUGUAGAAGGUGCAAAGA [Soesquma] (puzzle: Exclusion 2) |  |  |  |  | 24.5 | 
26 | GUCAGACGAGGAUAUAGAUUUAAGUACAUGAGGAUCACCCAUGUGCAUAUGUAUUUAGAUUUAGAAGGCGUCUGAC [E5/18-A3] (Eterna round: R97, puzzle: Exclusion 5) | 584 |  | 428 |  |  | 
27 | UUUCCCUGUGUGAGGAUAUACUUGUUUGGGUUUUUGUAGAAGGCACAUGAGGAUCACCCAUGUACUCUGUCCUG [JR_BME4_Sub022] (puzzle: Brourd's mod of Exclusion 4) |  |  |  |  | 22.1 | 
28 | AGGAUGUGAGGAUAUCCAUCCCGCGAAUGCGGGUAAUAAAUGGAGAAGGCACAUGAGGAUCACCCAUGUGAUGA [Laleatus] (Eterna round: R97, puzzle: Exclusion 4) | 978 |  | 47.8 |  |  | 
29 | AGUAGAUCAGGAUAUACGUGAAAGGUCAAAGUGUCCAAUAUACAUGAGGAUCACCCAUGUAGAAGGGAUCUACA [Ex2 Design 116: Not so Super Stable 3] (Eterna round: R96, puzzle: Exclusion 2) | 168 | 22.1 | 27.4 |  |  | 
30 | GAUUAACAUGAGGAUCACCCAUGUGAGGAUAUGGACUUGCCCACUUAACCAUUAGAGUCUAGAAGGCGCAUCUC [1986#28] (Eterna round: R97, puzzle: Exclusion 1) | 27.1 |  | 22.7 |  |  | 
31 | UUUAAUUUUUUUUUUUUACAAGCUUUUUGCUCGUCUUAUACAUGAGGAUCACCCAUGUGGGUAAGAGAUAAAUUAUC [JMF 13] (puzzle: Sensor v3, turn-off variant 2) |  |  |  | 24.9 | 36.3 | 27.8
32 | AGCGCCAUCGUGAGAUGGCGUAUUACAUGAGGAUCACCCAUGUAGGAUAUCGAUUGCUUUGCAGUCGAGAAGGACAUGUCCUAG [JL ENG3 3.80 Mod F] (Eterna round: R96, puzzle: Exclusion NG 3) | 38.3 | 23.4 | 27.9 |  |  | 
33 | AAAGAACAUGAGGAUCACCCAUGUAAGGAUAUCCAAAAGAAGGAAAGAAAGAAAAGAAGGAGAAGGUACAAGAA [JR_Exclu1_Sub041] (puzzle: Exclusion 1) |  |  |  | 33.5 | 60.7 | 84.5
34 | GAUUAUGCGAGCUUUAGGGACAUGAGGAUCACCCAUGUUCGUCUUAUUGGUCUAGAUGCACUGACAUACCUAAAUCU [JMF 79] (puzzle: Sensor v3, turn-off variant 1) |  |  |  | 15.9 | 19.1 | 16.3
